According to the supplement of paper PMC9112550, “Optimization of the antimicrobial peptide Bac7 by deep mutational scanning” (BMC Biology, 2022):

These sequences were tested on Escherichia coli TOP10 (assay: shrunken log2 fold change of peptide-encoding DNA abundance (4.5 h post-induction vs induction); higher = less antimicrobial activity (less host growth inhibition)). Conditions: time post-induction: 4.5 h; library: site-saturation at positions 5, 18, 19, 20.
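Further: peptides expressed intracellularly from a pBAD plasmid library in pooled LB shake-flask culture, induced with 0.3% L-arabinose, DNA abundance read by NGS, three biological replicates, DESeq2 with apeglm shrinkage.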

Row | Sequence | shrunken log2 fold change
1 | RRIRWRPPRLPRPRPRPSVYPRP | 0.0378
2 | RRIRFRPPRLPRPRPRPWACPRP | -0.15
3 | RRIRFRPPRLPRPRPRPSIHPRP | -0.84
4 | RRIRKRPPRLPRPRPRPTQIPRP | 0.412
5 | RRIRARPPRLPRPRPRPRNAPRP | 0.485
6 | RRIRMRPPRLPRPRPRPPHHPRP | 0.527
7 | RRIRARPPRLPRPRPRPYVNPRP | -0.235
8 | RRIRCRPPRLPRPRPRPRDPPRP | 0.864
9 | RRIRQRPPRLPRPRPRPKSGPRP | 0.631
10 | RRIRDRPPRLPRPRPRPKQSPRP | 0.00791
11 | RRIRGRPPRLPRPRPRPLAWPRP | 1.43
12 | RRIRNRPPRLPRPRPRPDCGPRP | 0.0246
13 | RRIRDRPPRLPRPRPRPMERPRP | -0.0122
14 | RRIRVRPPRLPRPRPRPPYLPRP | -0.0916
15 | RRIRSRPPRLPRPRPRPNCEPRP | -0.133
16 | RRIRARPPRLPRPRPRPSRIPRP | 0.163
17 | RRIRKRPPRLPRPRPRPDEMPRP | 0.188
18 | RRIRQRPPRLPRPRPRPVYTPRP | -0.143
19 | RRIRDRPPRLPRPRPRPVQTPRP | -0.0375
20 | RRIRKRPPRLPRPRPRPCKPPRP | -0.00919
21 | RRIRQRPPRLPRPRPRPYNDPRP | 0.00408
22 | RRIRHRPPRLPRPRPRPWEAPRP | -0.0553
23 | RRIRERPPRLPRPRPRPGGTPRP | -0.215
24 | RRIRLRPPRLPRPRPRPNPCPRP | -0.398
25 | RRIRERPPRLPRPRPRPNREPRP | -0.0209

Row | Sequence | shrunken log2 fold change
26 | RRIRKRPPRLPRPRPRPCDHPRP | 0.0248
27 | RRIRCRPPRLPRPRPRPSVKPRP | -0.765
28 | RRIRFRPPRLPRPRPRPGHTPRP | -0.445
29 | RRIRLRPPRLPRPRPRPWMAPRP | -0.346
30 | RRIRSRPPRLPRPRPRPINCPRP | -0.159
31 | RRIRCRPPRLPRPRPRPKEFPRP | 0.0238
32 | RRIRGRPPRLPRPRPRPYQIPRP | -0.118
33 | RRIRSRPPRLPRPRPRPMRRPRP | 0.732
34 | RRIRMRPPRLPRPRPRPPRNPRP | 1.27
35 | RRIRDRPPRLPRPRPRPFSSPRP | -0.0177
36 | RRIRWRPPRLPRPRPRPYLVPRP | -0.195
37 | RRIRRRPPRLPRPRPRPSRMPRP | 0.0176
38 | RRIRRRPPRLPRPRPRPFRWPRP | 0.279
39 | RRIRPRPPRLPRPRPRPLVTPRP | -0.302
40 | RRIRPRPPRLPRPRPRPSRWPRP | 0.611
41 | RRIRLRPPRLPRPRPRPYMQPRP | -0.297
42 | RRIRCRPPRLPRPRPRPYYGPRP | -0.199
43 | RRIRFRPPRLPRPRPRPVHDPRP | 0.0232
44 | RRIRVRPPRLPRPRPRPHDDPRP | -0.162
45 | RRIRNRPPRLPRPRPRPEHEPRP | 0.127
46 | RRIRKRPPRLPRPRPRPVPQPRP | 0.313
47 | RRIRVRPPRLPRPRPRPFSLPRP | -0.348
48 | RRIRCRPPRLPRPRPRPDTYPRP | -0.075
49 | RRIRTRPPRLPRPRPRPQPRPRP | 0.439
50 | RRIRSRPPRLPRPRPRPMKSPRP | 0.328

Row | Sequence | shrunken log2 fold change
51 | RRIRSRPPRLPRPRPRPEPCPRP | 0.108
52 | RRIRFRPPRLPRPRPRPASSPRP | -0.204
53 | RRIRHRPPRLPRPRPRPQYFPRP | -0.439
54 | RRIRIRPPRLPRPRPRPAYTPRP | -1.41
55 | RRIRYRPPRLPRPRPRPAEYPRP | -0.58
56 | RRIRDRPPRLPRPRPRPVFMPRP | 0.11
57 | RRIRLRPPRLPRPRPRPQARPRP | 0.169
58 | RRIRMRPPRLPRPRPRPHLQPRP | 0.0376
59 | RRIRHRPPRLPRPRPRPVLNPRP | 0.157
60 | RRIRKRPPRLPRPRPRPSDQPRP | 0.0938
61 | RRIRVRPPRLPRPRPRPTPLPRP | 0.251
62 | RRIRERPPRLPRPRPRPGMFPRP | -0.837
63 | RRIRIRPPRLPRPRPRPCSPPRP | -0.271
64 | RRIRTRPPRLPRPRPRPAFCPRP | 0.113
65 | RRIRQRPPRLPRPRPRPCCNPRP | -0.0838
66 | RRIRKRPPRLPRPRPRPLKRPRP | 0.321
67 | RRIRKRPPRLPRPRPRPCKSPRP | -0.0499
68 | RRIRNRPPRLPRPRPRPSFWPRP | -0.056
69 | RRIRIRPPRLPRPRPRPHNRPRP | -0.573
70 | RRIRRRPPRLPRPRPRPYFIPRP | -0.432
71 | RRIRVRPPRLPRPRPRPATKPRP | 0.153
72 | RRIRQRPPRLPRPRPRPDVIPRP | -0.011
73 | RRIRHRPPRLPRPRPRPFETPRP | 0.0877
74 | RRIRARPPRLPRPRPRPEWKPRP | 0.0235
75 | RRIRQRPPRLPRPRPRPEWKPRP | -0.00192
